Measurements: US6967100B2, “Pancreatic islet cell growth factors” (The Walter and Eliza Hall Institute of Medical Research, priority 2000, dated 2005)

Experiments:
Format in all cases: cell-based
[1] = test system: 13.5 dpc fetal mouse pancreas cells; experiment: Colony formation of 13.5 dpc fetal mouse pancreas cells cultured with BMPs and laminin-1; details: for proliferation and colony formation of fetal pancreas cells: in the presence (but not absence) of laminin-1, four days culture; for proliferation or colony formation, candidate growth factors individually: 13.5 dpc fetal pancreas cells
Procedure: Dissociated fetal pancreas cells were prepared from 13.5 dpc CBA mice. Pregnant mice at 13.5 dpc were killed by cervical dislocation and fetuses collected into ice cold sterile mouse tonicity phosphate-buffered saline (MTPBS). Fetal pancreata were harvested under an Olympus dissection microscope into RPMI 1640 medium and dissociated in a shaking water bath at 37° C. for 11 mins in Ca^2+/Mg^2+-free PBS containing 0.5% v/v trypsin/EDTA as described for testis by Bucci et al. (1986). After dissociation, trypsin was inactivated by addition of 8% w/v bovine serum albumin (BSA, fraction V) (Sigma, St. Louis, USA). The tissue was aspirated several times in a pipette, passed through a 27 gauge needle to make a single cell suspension and then rinsed in 10 μg/ml DNAse I (Promega, Madison, USA) in RPMI 1640 for 10 mins to reduce cellular aggregates. Cell suspensions were filtered through a 70-100 μm steel mesh, centrifuged at 400×g for 5 mins and the supernatant discarded. The cell pellet was resuspended in HYBRIDOMA medium and stored on ice. Cells were counted under a haemocytometer and viability was determined by exclusion of 0.2% v/v trypan blue dye. Pancreatic cells were plated in 8 chamber slides (Nunc) at 1.5×10^4 cells/well in 0.3 ml HYBRIDOMA medium 500 UI/ml penicillin and 500 μg/ml streptomycin. The cells were cultured in 10% v/v CO2, 90% v/v air at 37° C. with 100% humidity for four days in the presence of factors such as laminin-1 and BMPs.
After four days in culture, cells were washed twice with warm MT-PBS and fixed with a 4% v/v paraformaldehye for 10 mins. In some cases, 100 μM BrdU was added to label proliferating cells 12 hours before fixation and detection with monoclonal antibody to BrdU and FITC-labelled rabbit anti-mouse immunoglobulin. For immunoperoxidase staining, endogenous peroxidase was blocked by 3% v/v H2O2 in methanol for 8 mins and, prior to addition of primary antibody, non-specific protein binding was blocked by incubation for at least 30 mins in MTPBS containing 2% w/v BSA or 2% v/v normal rabbit serum. Controls were performed by replacing primary antibody with pre-immune serum from the appropriate species. Tissue sections or cells were incubated with primary antibodies for 90 min RT, followed by three thorough washes with MTPBS. For immunoperoxidase staining, horseradish peroxidase-conjugated rabbit anti-guinea pig, swine anti-rabbit or rabbit anti-mouse immunoglobulins (Dako) diluted 1:80 were added for 30 mins at RT followed by thorough washes; colour was developed with 3,3′-diaminobenzidine/H2O2 for 4-8 mins and slides counterstained with haematoxylin.
A pancreatic cell colony was defined as a spherical collection of 20 cells. Colonies were counted under a×10 power objective with an eyepiece graticule.

C2C12 myoblasts = experiment: C2C12 cell BMP bioassay (transformation of myoblasts into alkaline phosphatase-containing osteoblasts); details: for BMP activity of conditioned medium (alkaline phosphatase activity of C2C12 cells): conditioned medium of stably transfected CHO cells, compared to medium of untransfected CHO cells
Procedure: BMP activity was measured in the C2C12 cell bioassay, in which BMPs transform C2C12 myoblasts into alkaline phosphatase-containing osteoblasts (Katagiri et al., 1994). Briefly, CHO cells were plated at a density of around 5×10^6 per 75 cm^2 flask in serum-free HYBRIDOMA medium (Gibco BRL Life Technology) (SFHM) containing 10% v/v FCS. Once the cells had reached confluency, the medium was removed, the cells washed twice with SFHM and 10 ml of SFHM then added to each flask. The cells were cultured for four days and the conditioned medium collected, filtered through a 2 micron filter and stored at 4° C.
2×10^3 C2C12 cells were plated into each well of a 96-well tissue culture plate in DME/10% v/v FCS. Twenty-four hours later, the medium was removed and replaced with 100 μl SFHM/1% v/v FCS. 50 μl of each conditioned medium was added in duplicate to the top row of the 96-well plate and the volume of these wells then made up to 200 μl. Using a multi-channel pipette, 100 μl from each well was then serially transferred to subsequent rows thus diluting the conditioned medium 2-fold with each transfer. After incubation for five days, the media were discarded and the cells washed with normal saline. Cells were lysed for 10 mins at room temperature (RT) in 100 μl 0.5% v/v TritonX-100 and 100 mM diethanolamine (pH 9.5) in normal saline. To each well was then added an aqueous solution containing 10 mM diethanolamine, 1 mg/ml p-nitrophenyl phosphate (PNPP) and 0.5 mM MgCl2. The yellow reaction product catalyzed by alkaline phosphatase was allowed to develop for 10-60 mins before reading absorption at 415 nm.

[2] = test system: E15.5 CBA mouse fetal pancreas cells; experiment: Cystic colony formation of E15.5 fetal mouse pancreas cells in laminin-1 overlay culture
Procedure: Pancreata were dissected from embryonic day (E)15.5 CBA mouse fetuses and dissociated into single cells as described (Jiang et al., 1999). Briefly, dissected pancreas was digested with trypsin/EDTA for 15 minutes at 37° C. in a shaking water bath. Cells were counted in a haemocytometer and viability determined by trypan blue dye exclusion. Each fetal pancreas yielded 50,000 viable cells (48,509±11,299, n=14). Dissociated cells were plated in 8 well chamber slides (Nunc, Naperville, USA) at 7.5×10^4 cells/well in 0.3 ml AIM V medium supplemented with N-2 (1:100, Gibco BRL Life Technologies, Gaithersburg, USA), 500 UI/ml penicillin and 500 μg/ml streptomycin. Laminin-1 (160 μg/ml), purified from murine Engelbreth-Holm-Swarm tumor basement membrane (Becton Dickinson Labware, Bedford, USA), was overlayed on cells in the presence of various growth factors. Cultures were incubated in 10% CO2 90% air at 37° C., for up to 6 days. Recombinant human BMP 6 and BMP 5, recombinant human TGF-β1 and recombinant activin A were purchased from R&D Systems (Minneapolis, USA). These factors, dissolved at a concentration of 10 ng/μl in mouse tonicity phosphate buffered saline (PBS) containing 0.1% w/v bovine serum albumin (BSA), were added at the start of culture. Phase contrast images of colonies were photographed with Olympus IX70 digitized camera.
Colony formation was assessed at day 6 of culture. A colony was defined as a cellular sphere ≧30 μm in diameter, which contained more than 20 cells. The number of colonies per well was counted directly under a inverted microscope at ×10. Colony counts were performed using a blind design.

[3] = test system: E15.5 CBA mouse fetal pancreas cells; experiment: as above; details: BMP alone

Molecule | proliferation and colony formation of fetal pancreas cells [1] | BMP activity of conditioned medium (alkaline phosphatase activity of C2C12 cells) (C2C12 myoblasts) | proliferation or colony formation, candidate growth factors individually [1] | further results
BMP 4/4: BMP 4 homodimer, epitope-tagged recombinant mouse BMP in CHO cell conditioned medium (protein, UniProt P21275 293-408, looked up, epitope tag) Bone morphogenetic protein 4: SPKHHPQRSRKKNKNCRRHSLYVDFSDVGWNDWIVAPPGYQAFYCHGDCPFPLADHLNSTNHAIVQTLVNSVNSSIPKACCVPTELSAISMLYLDEYDKVVLKNYQEMVVEGCGCR | did not promote colony formation | significant activity | – | –
BMP 7/7: BMP 7 homodimer, epitope-tagged recombinant mouse BMP in CHO cell conditioned medium (protein, UniProt P23359 292-430, looked up, epitope tag) Bone morphogenetic protein 7: STGGKQRSQNRSKTPKNQEALRMASVAENSSSDQRQACKKHELYVSFRDLGWQDWIIAPEGYAAYYCEGECAFPLNSYMNATNHAIVQTLVHFINPDTVPKPCCAPTQLNAISVLYFDDSSNVILKKYRNMVVRACGCH | stimulated fetal pancreas cells to proliferate and form colonies | significant activity | – | –
BMP 4/6: BMP 4 and BMP 6 heterodimer, recombinant mouse, CHO cell conditioned medium (protein, UniProt P21275 293-408; P20722 372-510, looked up, heterodimer, BMP 4 and BMP 6 heterodimer, recombinant mouse, CHO cell conditioned medium) Bone morphogenetic protein 4: SPKHHPQRSRKKNKNCRRHSLYVDFSDVGWNDWIVAPPGYQAFYCHGDCPFPLADHLNSTNHAIVQTLVNSVNSSIPKACCVPTELSAISMLYLDEYDKVVLKNYQEMVVEGCGCR Bone morphogenetic protein 6: SASSRRRQQSRNRSTQSQDVSRGSGSSDYNGSELKTACKKHELYVSFQDLGWQDWIIAPKGYAANYCDGECSFPLNAHMNATNHAIVQTLVHLMNPEYVPKPCCAPTKLNAISVLYFDDNSNVILKKYRNMVVRACGCH | did not promote colony formation | significant activity | – | –
BMP 4/7: BMP 4 and BMP 7 heterodimer, recombinant mouse, CHO cell conditioned medium (protein, UniProt P21275 293-408; P23359 292-430, looked up, heterodimer, BMP 4 and BMP 7 heterodimer, recombinant mouse, CHO cell conditioned medium) Bone morphogenetic protein 4: SPKHHPQRSRKKNKNCRRHSLYVDFSDVGWNDWIVAPPGYQAFYCHGDCPFPLADHLNSTNHAIVQTLVNSVNSSIPKACCVPTELSAISMLYLDEYDKVVLKNYQEMVVEGCGCR Bone morphogenetic protein 7: STGGKQRSQNRSKTPKNQEALRMASVAENSSSDQRQACKKHELYVSFRDLGWQDWIIAPEGYAAYYCEGECAFPLNSYMNATNHAIVQTLVHFINPDTVPKPCCAPTQLNAISVLYFDDSSNVILKKYRNMVVRACGCH | stimulated fetal pancreas cells to proliferate and form colonies | significant activity | – | relative BMP bioactivity (C2C12 myoblasts; FIG. 3, heterodimer versus homodimer): more active than 4/4 homodomers
KGF: candidate growth factor (protein, UniProt P21781 32-194, looked up) Fibroblast growth factor 7: CNDMTPEQMATNVNCSSPERHTRSYDYMEGGDIRVRRLFCRTQWYLRIDKRGKVKGTQEMKNNYNIMEIRTVAVGIVAIKGVESEFYLAMNKEGKLYAKKECNEDCNFKELILENHYNTYASAKWTHNGGEMFVALNQKGIPVRGKKTKKEQKTAHFLPMAIT | – | – | unable to promote proliferation or colony formation | –
Activin A: recombinant activin A from R&D Systems (protein, UniProt P08476 311-426, looked up) Inhibin beta A chain: GLECDGKVNICCKKQFFVSFKDIGWNDWIIAPSGYHANYCEGECPSHIAGTSGSSLSFHSTVINHYRMRGHSPFANLKSCCVPTKLRPMSMLYYDDGQNIIKKDIQNMIVEECGCS | – | – | unable to promote proliferation or colony formation | BMP 6-induced colony formation ([2]; 100 ng/ml against BMP 6 10 ng/ml, laminin-1 160 μg/ml, p<0.01 (FIG. 10B)): antagonized; colony formation relative to laminin-1 alone ([2]; 100 ng/ml, laminin-1 160 μg/ml (FIG. 10A)): suppressed colony formation to levels below that observed with laminin-1 alone
betacellulin: candidate growth factor (protein, UniProt P35070 32-111, looked up) Betacellulin: DGNSTRSPETNGLLCGDPEENCAATTTQSKRKGHFSRCPKQYKHYCIKGRCRFVVAEQTPSCVCDEGYIGARCERVDLFY | – | – | unable to promote proliferation or colony formation | –
BMP 6/6: recombinant mouse BMP 6, myc epitope tagged, CHO cell conditioned medium; called BMP 6 in b118 (protein, UniProt P20722 372-510, looked up, myc epitope tag, called BMP 6) Bone morphogenetic protein 6: SASSRRRQQSRNRSTQSQDVSRGSGSSDYNGSELKTACKKHELYVSFQDLGWQDWIIAPKGYAANYCDGECSFPLNAHMNATNHAIVQTLVHLMNPEYVPKPCCAPTKLNAISVLYFDDNSNVILKKYRNMVVRACGCH | stimulated fetal pancreas cells to proliferate and form colonies | – | – | –
BMP 5: recombinant human BMP 5 purchased from R&D Systems (protein, UniProt P22003 317-454, looked up) Bone morphogenetic protein 5: AANKRKNQNRNKSSSHQDSSRMSSVGDYNTSEQKQACKKHELYVSFRDLGWQDWIIAPEGYAAFYCDGECSFPLNAHMNATNHAIVQTLVHLMFPDHVPKPCCAPTKLNAISVLYFDDSSNVILKKYRNMVVRSCGCH | – | – | – | colony formation in the absence of laminin-1 [3]: no effect; concentration of maximal stimulation of colony formation ([2]; laminin-1 160 μg/ml, day 6, fewer colonies at higher concentrations): 100 ng/mL; formation of cystic colonies in the presence of laminin-1 ([2]; laminin-1 160 μg/ml, up to 6 days): synergized with laminin-1 to promote formation of cystic colonies
